± gives the standard deviation of the averaged measurements.
Test system: ATP
Experiment: switch fluorescence ratio, 500 uM ATP over buffer (Cy3 cluster intensity, sum of 5 cycles each) (fold (ratio)); higher = stronger signal-on switching upon ATP binding; sequences stand for … in TCGTCGGCAGCGTCAGATGTGTATAAGAGACAGTTTTTTTTTTTTTTTTTTTTTTTTT…TC
Conditions: aptamer strand: ATP DNA aptamer (quencher-CACCTGGGGGAGTATTGCGGAGGAAGG + anchor), 100 nM annealed; ATP concentration: 500 uM
In short: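 Clusters carrying Cy3-labelled switching strands on a modified Illumina MiSeq flow-cell were annealed to 100 nM quencher-labelled ATP aptamer and imaged in selection buffer. They were imaged again after 15 min with 500 uM ATP at 22 °C, over five buffer/ATP cycles with NaOH stripping and re-annealing in between. For each cluster, the fluorescence ratio is the summed Cy3 intensity of the target cycles divided by that of the buffer cycles, averaged per switch-domain sequence. Clusters outside 100-1000 RFU were left out.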
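Further: ATP exposure 15 min at 22 °C before imaging.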

Sequence: TGGCCTTATT
- switch fluorescence ratio: 0.992 ± 0.011

Sequence: TGGCCTTGTG
- switch fluorescence ratio: 1.02 ± 0.051

Sequence: TGGCGAAGTT
- switch fluorescence ratio: 0.997 ± 0.024

Sequence: TGGCGAGGCG
- switch fluorescence ratio: 1.046 ± 0.0077

Sequence: TGGCGCGTAC
- switch fluorescence ratio: 1.81 ± 0.095

Sequence: TGGCGGGGCT
- switch fluorescence ratio: 0.9972 ± 0.0064

Sequence: TGGCGTGGGG
- switch fluorescence ratio: 1.01 ± 0.021

Sequence: TGGCGTTAGG
- switch fluorescence ratio: 0.977 ± 0.019

Sequence: TGGCTCTGGG
- switch fluorescence ratio: 1.04 ± 0.033

Sequence: TGGCTGCCGT
- switch fluorescence ratio: 0.988 ± 0.032

Sequence: TGGCTGGGGG
- switch fluorescence ratio: 1.09 ± 0.1

Sequence: TGGGAAAAAA
- switch fluorescence ratio: 0.985 ± 0.035

Sequence: TGGGAAAACG
- switch fluorescence ratio: 1.05 ± 0.078

Sequence: TGGGAAAAGG
- switch fluorescence ratio: 1.16 ± 0.31

Sequence: TGGGAAATAC
- switch fluorescence ratio: 2.11 ± 0.12

Sequence: TGGGAAATCG
- switch fluorescence ratio: 1.03 ± 0.014

Sequence: TGGGAACGAG
- switch fluorescence ratio: 1.01 ± 0.017

Sequence: TGGGAACGTC
- switch fluorescence ratio: 1.0205 ± 2.8e-05

Sequence: TGGGAACTTG
- switch fluorescence ratio: 0.991 ± 0.028

Sequence: TGGGAATAAT
- switch fluorescence ratio: 1.03 ± 0.031

Sequence: TGGGAATCAC
- switch fluorescence ratio: 1.05 ± 0.017

Sequence: TGGGAATGAA
- switch fluorescence ratio: 0.992 ± 0.021

Sequence: TGGGAATGGC
- switch fluorescence ratio: 0.9555 ± 0.0094

Sequence: TGGGAATTTC
- switch fluorescence ratio: 1.035 ± 0.0034

Sequence: TGGGACAAGC
- switch fluorescence ratio: 0.979 ± 0.032

Sequence: TGGGACAGCG
- switch fluorescence ratio: 0.957 ± 0.031

Sequence: TGGGACCCAT
- switch fluorescence ratio: 1.02 ± 0.055

Sequence: TGGGACCGGG
- switch fluorescence ratio: 1 ± 0.059

Sequence: TGGGACCTGG
- switch fluorescence ratio: 1.07 ± 0.15

Sequence: TGGGACGGGG
- switch fluorescence ratio: 0.984 ± 0.025

Sequence: TGGGACTGTA
- switch fluorescence ratio: 1.14 ± 0.073

Sequence: TGGGAGGTTG
- switch fluorescence ratio: 0.994 ± 0.04

Sequence: TGGGAGTAGC
- switch fluorescence ratio: 0.9907 ± 0.0091

Sequence: TGGGAGTTTC
- switch fluorescence ratio: 0.978 ± 0.01

Sequence: TGGGAGTTTT
- switch fluorescence ratio: 1.02 ± 0.047

Sequence: TGGGATAGAA
- switch fluorescence ratio: 0.996 ± 0.019

Sequence: TGGGATATA
- switch fluorescence ratio: 1.01 ± 0.056

Sequence: TGGGATCAGT
- switch fluorescence ratio: 0.99 ± 0.021

Sequence: TGGGATGTTA
- switch fluorescence ratio: 0.9872 ± 0.0074

Sequence: TGGGATTGAC
- switch fluorescence ratio: 1.06 ± 0.019

Sequence: TGGGATTTGA
- switch fluorescence ratio: 0.993 ± 0.023

Sequence: TGGGATTTTG
- switch fluorescence ratio: 1.014 ± 0.0028

Sequence: TGGGCAGATA
- switch fluorescence ratio: 1.08 ± 0.1

Sequence: TGGGCAGGCA
- switch fluorescence ratio: 1 ± 0.028

Sequence: TGGGCAGGGT
- switch fluorescence ratio: 1.02 ± 0.016

Sequence: TGGGCATAAA
- switch fluorescence ratio: 1.006 ± 0.0012

Sequence: TGGGCGCATT
- switch fluorescence ratio: 1.68 ± 0.88

Sequence: TGGGCGCCGT
- switch fluorescence ratio: 0.957 ± 0.017

Sequence: TGGGCGGGGA
- switch fluorescence ratio: 1.03 ± 0.048

Sequence: TGGGCTAAGC
- switch fluorescence ratio: 1.03 ± 0.028

Sequence: TGGGCTCGCC
- switch fluorescence ratio: 1 ± 0.025

Sequence: TGGGCTGTTT
- switch fluorescence ratio: 1.012 ± 0.01

Sequence: TGGGCTTAAG
- switch fluorescence ratio: 1.02 ± 0.026

Sequence: TGGGCTTCGT
- switch fluorescence ratio: 0.994 ± 0.038

Sequence: TGGGGAAACG
- switch fluorescence ratio: 0.9455 ± 0.0068

Sequence: TGGGGAATTG
- switch fluorescence ratio: 0.969 ± 0.053

Sequence: TGGGGAGAAA
- switch fluorescence ratio: 1 ± 0.031

Sequence: TGGGGAGGCT
- switch fluorescence ratio: 1.04 ± 0.055

Sequence: TGGGGAGGGC
- switch fluorescence ratio: 1 ± 0.035

Sequence: TGGGGATACC
- switch fluorescence ratio: 0.987 ± 0.035

Sequence: TGGGGATAGG
- switch fluorescence ratio: 1.01 ± 0.022

Sequence: TGGGGATCGG
- switch fluorescence ratio: 0.973 ± 0.025

Sequence: TGGGGATTAA
- switch fluorescence ratio: 0.991 ± 0.013

Sequence: TGGGGATTTA
- switch fluorescence ratio: 1.003 ± 0.0072

Sequence: TGGGGCACAT
- switch fluorescence ratio: 1.02 ± 0.022

Sequence: TGGGGCCCCG
- switch fluorescence ratio: 1 ± 0.013

Sequence: TGGGGCCGTG
- switch fluorescence ratio: 1.04 ± 0.04

Sequence: TGGGGCGAAA
- switch fluorescence ratio: 0.997 ± 0.089

Sequence: TGGGGCGAGG
- switch fluorescence ratio: 1.01 ± 0.014

Sequence: TGGGGCTAGG
- switch fluorescence ratio: 0.993 ± 0.018

Sequence: TGGGGCTGGT
- switch fluorescence ratio: 0.99 ± 0.018

Sequence: TGGGGCTTGG
- switch fluorescence ratio: 1.01 ± 0.051

Sequence: TGGGGGAATT
- switch fluorescence ratio: 1 ± 0.029

Sequence: TGGGGGACCC
- switch fluorescence ratio: 1 ± 0.061

Sequence: TGGGGGAGGG
- switch fluorescence ratio: 1 ± 0.054

Sequence: TGGGGGATG
- switch fluorescence ratio: 0.971 ± 0.018

Sequence: TGGGGGCGCG
- switch fluorescence ratio: 0.984 ± 0.042

Sequence: TGGGGGCTTG
- switch fluorescence ratio: 0.993 ± 0.024

Sequence: TGGGGGGACT
- switch fluorescence ratio: 1.02 ± 0.029

Sequence: TGGGGGGATC
- switch fluorescence ratio: 1.009 ± 0.0082

Sequence: TGGGGGGG
- switch fluorescence ratio: 1 ± 0.024

Sequence: TGGGGGGGA
- switch fluorescence ratio: 1.03 ± 0.031

Sequence: TGGGGGGGCT
- switch fluorescence ratio: 1.02 ± 0.036

Sequence: TGGGGGGTTA
- switch fluorescence ratio: 0.995 ± 0.024

Sequence: TGGGGGTAAT
- switch fluorescence ratio: 0.992 ± 0.029

Sequence: TGGGGGTACG
- switch fluorescence ratio: 1.028 ± 0.0016

Sequence: TGGGGGTAGG
- switch fluorescence ratio: 1.01 ± 0.027

Sequence: TGGGGGTGAG
- switch fluorescence ratio: 1 ± 0.029

Sequence: TGGGGGTGCA
- switch fluorescence ratio: 1.01 ± 0.035

Sequence: TGGGGGTGGC
- switch fluorescence ratio: 1.01 ± 0.052

Sequence: TGGGGGTGGG
- switch fluorescence ratio: 1.02 ± 0.044

Sequence: TGGGGGTGTA
- switch fluorescence ratio: 1.05 ± 0.039

Sequence: TGGGGGTTTA
- switch fluorescence ratio: 1.03 ± 0.019

Sequence: TGGGGTACAT
- switch fluorescence ratio: 0.991 ± 0.016

Sequence: TGGGGTAGCA
- switch fluorescence ratio: 1.01 ± 0.029

Sequence: TGGGGTAGTT
- switch fluorescence ratio: 0.995 ± 0.01

Sequence: TGGGGTATGT
- switch fluorescence ratio: 1 ± 0.031

Sequence: TGGGGTCAAA
- switch fluorescence ratio: 0.995 ± 0.036

Sequence: TGGGGTCATG
- switch fluorescence ratio: 0.9887 ± 0.0096

Sequence: TGGGGTGGTG
- switch fluorescence ratio: 0.9992 ± 0.0038

Sequence: TGGGGTGTGG
- switch fluorescence ratio: 1.23 ± 0.36

Sequence: TGGGGTGTTG
- switch fluorescence ratio: 0.983 ± 0.011

Sequence: TGGGGTTCGA
- switch fluorescence ratio: 0.975 ± 0.024

Sequence: TGGGGTTGTA
- switch fluorescence ratio: 1.01 ± 0.056

Sequence: TGGGGTTGTT
- switch fluorescence ratio: 0.985 ± 0.033

Sequence: TGGGGTTTGA
- switch fluorescence ratio: 0.997 ± 0.032

Sequence: TGGGTAACGA
- switch fluorescence ratio: 0.962 ± 0.021

Sequence: TGGGTAATCC
- switch fluorescence ratio: 1.03 ± 0.025

Sequence: TGGGTACTTT
- switch fluorescence ratio: 0.994 ± 0.016

Sequence: TGGGTAGGAT
- switch fluorescence ratio: 1.02 ± 0.018

Sequence: TGGGTAGGGA
- switch fluorescence ratio: 0.9759 ± 0.0093

Sequence: TGGGTAGTGT
- switch fluorescence ratio: 1 ± 0.026

Sequence: TGGGTATCTT
- switch fluorescence ratio: 1.03 ± 0.061

Sequence: TGGGTATTCT
- switch fluorescence ratio: 0.945 ± 0.024

Sequence: TGGGTATTGG
- switch fluorescence ratio: 1 ± 0.03

Sequence: TGGGTCAGTC
- switch fluorescence ratio: 1.05 ± 0.021

Sequence: TGGGTCATTT
- switch fluorescence ratio: 0.99 ± 0.034

Sequence: TGGGTCGGCA
- switch fluorescence ratio: 1.05 ± 0.023

Sequence: TGGGTCGGGC
- switch fluorescence ratio: 0.9905 ± 0.009

Sequence: TGGGTCTCTT
- switch fluorescence ratio: 1.01 ± 0.008

Sequence: TGGGTGAGTT
- switch fluorescence ratio: 1.02 ± 0.019

Sequence: TGGGTGATAG
- switch fluorescence ratio: 0.99 ± 0.035

Sequence: TGGGTGATCG
- switch fluorescence ratio: 1.03 ± 0.067

Sequence: TGGGTGCGG
- switch fluorescence ratio: 0.984 ± 0.026

Sequence: TGGGTGGAGA
- switch fluorescence ratio: 1.02 ± 0.021

Sequence: TGGGTGGGAT
- switch fluorescence ratio: 1.002 ± 0.009

Sequence: TGGGTGGGTA
- switch fluorescence ratio: 1.03 ± 0.026

Sequence: TGGGTGGGTC
- switch fluorescence ratio: 1.05 ± 0.069

Sequence: TGGGTGGGTG
- switch fluorescence ratio: 1.04 ± 0.053

Sequence: TGGGTGGTGT
- switch fluorescence ratio: 1.016 ± 0.0034

Sequence: TGGGTGTCGC
- switch fluorescence ratio: 0.9672 ± 0.0039

Sequence: TGGGTGTCGT
- switch fluorescence ratio: 1.02 ± 0.081

Sequence: TGGGTTAAGT
- switch fluorescence ratio: 1 ± 0.021

Sequence: TGGGTTACTA
- switch fluorescence ratio: 1.002 ± 0.0097

Sequence: TGGGTTCCCG
- switch fluorescence ratio: 0.986 ± 0.013

Sequence: TGGGTTCGGC
- switch fluorescence ratio: 0.9808 ± 0.0045

Sequence: TGGGTTCTAT
- switch fluorescence ratio: 0.9874 ± 0.0077

Sequence: TGGGTTCTTG
- switch fluorescence ratio: 0.998 ± 0.044

Sequence: TGGGTTGATT
- switch fluorescence ratio: 1.01 ± 0.031

Sequence: TGGGTTGGGA
- switch fluorescence ratio: 0.991 ± 0.035

Sequence: TGGGTTGGGG
- switch fluorescence ratio: 1.01 ± 0.049

Sequence: TGGGTTGTAT
- switch fluorescence ratio: 0.998 ± 0.02

Sequence: TGGGTTTAGC
- switch fluorescence ratio: 1 ± 0.043

Sequence: TGGGTTTGGC
- switch fluorescence ratio: 1.02 ± 0.023

Sequence: TGGTAAACGG
- switch fluorescence ratio: 0.988 ± 0.02

Sequence: TGGTAAACGT
- switch fluorescence ratio: 1.05 ± 0.026

Sequence: TGGTAAAGCT
- switch fluorescence ratio: 0.994 ± 0.017

Sequence: TGGTAAATAT
- switch fluorescence ratio: 1.01 ± 0.013

Sequence: TGGTAACGGT
- switch fluorescence ratio: 1.09 ± 0.12

Sequence: TGGTAATTAG
- switch fluorescence ratio: 0.979 ± 0.014

Sequence: TGGTACCTTT
- switch fluorescence ratio: 1.04 ± 0.012

Sequence: TGGTAGAAGG
- switch fluorescence ratio: 0.954 ± 0.013

Sequence: TGGTAGAGGG
- switch fluorescence ratio: 0.986 ± 0.014

Sequence: TGGTAGCAGG
- switch fluorescence ratio: 1.24 ± 0.35

Sequence: TGGTAGGGG
- switch fluorescence ratio: 1.01 ± 0.016

Sequence: TGGTAGGTGG
- switch fluorescence ratio: 1.017 ± 0.0049

Sequence: TGGTATGCGC
- switch fluorescence ratio: 0.9971 ± 0.0047

Reference: the supplement of paper PMC10126150
